# Test: yeast display, Sf9 membrane polyspecificity reagent, FACS + sequencing; frameworks hold sequencing errors
# How it was run: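 Galactose-induced (36–48 hours) yeast carrying a synthetic nanobody display library were exposed to 10% biotinylated, detergent-solubilized Sf9 membrane reagent at 4 °C for 1 hour. FACS followed streptavidin microbead enrichment, using low and high (top ~1%) gates for expression (anti-HA) and reagent binding (streptavidin). Colony PCR, MiSeq 2 × 250 sequencing and CDR-length filtering followed. Labels for polyreactivity reflect the gate of origin.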
row,Sequence,polyreactivity (PSR sort gate)
1,QVQLVESGGGLVQAGGSLRLSCAASGRILRDYDMGWYRQATGKERELVAAINWSDGSTYYADSVKGRFTISRDNAKNTVYLQMNSLKPEDTAVYYCAASRWRPLERGTTWLNDYWGQGTQVTVSS,low polyreactivity
2,QVQLVESGGGLVQAGGSLRLSCAASGRILRGYVMGWSRQAPGKERELVATITGRGGSTYYADSVKGRFTISRDNAKNTVYLQMNSLKPEDTAVYYCNKDGYPYFGRSEYWGQGTQVTVSS,low polyreactivity
3,QVQLVESGGGLVQAGGSLRLSCAASGRILRTNAMGWYRQAPGKERELVAAISSDGSTYYADSVKGRFTISRDNAKNTVYLQMNSLKPEDTAVYYCAARLFYRGPRFDYWGQGTQVTVSS,low polyreactivity
4,QVQLVESGGGLVQAGGSLRLSCAASGRILRYNAMGWYRQAPGKERELVATITRSAGRTYSADSVKGRFTISRDNAKNTVYLQMNSLKPEDTAVYYCAKDTDISTLHSKGRAKSRYDYWGQGTQVTVSS,low polyreactivity
5,QVQLVESGGGLVQAGGSLRLSCAASGRILRYYAMGGYRQAPGKERELVAAITSGGSTTYYADSVKGRFTISRDNAKNTVYLQMNSLKPEDTAVYYCAADRARSSAKYDYWGQGTQVTVSS,low polyreactivity
6,QVQLVESGGGLVQAGGSLRLSCAASGRILSLYAMGWYRPPPGKERELVAAIRWSGSRTYYADSVKGRFTISRDNAKNTVYLQMNSLKPEDTAVYYCNAWYRLLRSSDYYWGQGTQVTVSS,high polyreactivity
7,QVQLVESGGGLVQAGGSLRLSCAASGRILTLYAMGWYRQAPGKERELVAGINRGDVSTYYADSVKGRFTISRDNAKNSVYLQMNSLKPEDTAVYYCYADPPPDYYPDKDNYWGQGSQVTVSS,low polyreactivity
8,QVQLVESGGGLVQAGGSLRLSCAASGRILTSNAMGWYRQAPGTEMELVAAISWSGGSTYYADSVKGRFTISRDNAKNTVYLQMNSLKPEDTAVYYCAAVSYYASDYRYDYWGQGTQVTVSS,low polyreactivity
9,QVQLVESGGGLVQAGGSLRLSCAASGRILTTNAMGWYRQAPGKERELVAAITRSGGRTYYADSVKGRFTISRDNAKNTVYLQMNSLKPEDTAVYYCAAATSPGIYDYWGQGTQVTVSS,high polyreactivity
10,QVQLVESGGGLVQAGGSLRLSCAASGRILVHNAMGWYRQAPGKERELVAVITARGASTYYADSVKGRFTISRDNAKNTVYLQMNSLKPEDTAVYYCATDKRPKYYNQYDYWGQGTQVTVSS,low polyreactivity
11,QVQLVESGGGLVQAGGSLRLSCAASGRILVLNAMGWYRQAPGKERELVADITSGGSTYYADSVKGRFTISRDNAKNTVYLQMNSLKPEDTAVYYCAADWNTYPDYQQSYFVSYEYNYWGQGTQVTVSS,low polyreactivity
12,QVQLVESGGGLVQAGGSLRLSCAASGRILVRNAMGWYRQAPGQERELVAAITRTGASTYYADSVKGRFTISRDNPKNTVYLQMNSLKPEDTAVYYCAAVWGLPYWVYRYDYWGQGNQVTVSS,high polyreactivity
13,QVQLVESGGGLVQAGGSLRLSCAASGRILWWYAMAWYRQAPGKERELVATITYSGGSTYADSVKGRFTISRDNAKNTVYLQMNSLKPVDTAVYYCAARLALYYGKSVYWGQGTQVTVSS,high polyreactivity
14,QVQLVESGGGLVQAGGSLRLSCAASGRILWYYAMGWYRQAPGKERELVASISWSGGRTYYADSVKGRFTISRDNAKNTVYLQMNSLKPEDTAVYYCAAQLTRWRKPGDMEYWGQGTQVTVSS,high polyreactivity
15,QVQLVESGGGLVQAGGSLRLSCAASGRILYDYDMGWYRQAPGKERELVATISRGGGTNYADSVKGRFTISRDNAKNNVYLQMNSLKPEDTAVYYCAAYYSSDGDYWGQGTQVTVSS,low polyreactivity
16,QVQLVESGGGLVQAGGSLRLSCAASGRILYGYTMGWYRQAPGKERELVAAISSNGDSTYYADSVKGRFTISRDNAKNTVYLQLNSLKPEDTAVYYCAAVSIGPGEYDYWGQGTQVTVSS,low polyreactivity
17,QVQLVESGGGLVQAGGSLRLSCAASGRILYSYAMGWYRQAPGKERELVAAISSTGSTYYADSVKGRFTISRDNAKNTVYLQMNSLKPEDTAVYYCAATFYPYQVHHYYYWGKGTQVTVSS,low polyreactivity
18,QVQLVESGGGLVQAGGSLRLSCAASGRILYSYAMGWYRQAPGKERELVADITQRGGTTDYADSVKGRFTISRDNAKTTVYVQMNSLKPEDTAVYYCNANSYRSYGGRGGVEYDYWGEGTQVTVSS,low polyreactivity
19,QVQLVESGGGLVQAGGSLRLSCAASGRILYSYTMGWYRPAPGKEREFVAAITRSGGGTYYADSVKGRFTISRDNAKNTVYLQMNSLKPEDTAVYYCAATRNPYRRSNYDYWGQGTQVTVSS,high polyreactivity
20,QVQLVESGGGLVQAGGSLRLSCAASGRILYWYAMGGYRQAPGKERELVAGIDWSGGSTYYADSVKGRFTISRDNAKNTVYLQMNSLKPEDTAVYYCNAVQNRGRGSHRGESTYYYWGQGTQVTVSS,low polyreactivity
21,QVQLVESGGGLVQAGGSLRLSCAASGRILYYYAMGWYRQAPGKERELVAAITWGGGSTYYADSVKGRFTISRDNAKNTVYLQMNSLKPEDTAVYYCNRTFRSRLPTSRGYDYWGQGTQVTVSS,low polyreactivity
22,QVQLVESGGGLVQAGGSLRLSCAASGRINAMGWYRQAPGKERELVAVITLRGGSTYYADSVKGRFTISRDNAKNTGYLQMNSLKPEDTAVYYCAAETLVSFWFDYWGQGTQVTVSS,low polyreactivity

row,Sequence,polyreactivity (PSR sort gate)
1,QVQLVESGGGLVQAGGSLRLSCAASGRIRFYAMGWYIQAPGKERELVAAISSSGGSTYYADSVKGRFTISRDNAKNTVYLQMNSLKPEDTAVYYCAAAWYYLGTRAQLYDYWGQGTQVTVSS,low polyreactivity
2,QVQLVESGGGLVQAGGSLRLSCAASGRIRRYTMGWYRQAPGKVRELVASISGNGGSTYYADSVKGRFTISRDNAKNTVYLQMNSLKPEDTAVYYCARTKQEYTFGQFYLGDYWGQGTQVTVSS,low polyreactivity
3,QVQLVESGGGLVQAGGSLRLSCAASGRISAFNAMGWYRQAPGKERELVAAINVSGGNTYYADSVKGRFTISRDNAKNTVYLQMNSLKPEDTAVYYCAAERRRWGLDYYYWGQGTQVTVSS,high polyreactivity
4,QVQLVESGGGLVQAGGSLRLSCAASGRISESNDMGWSRQAPWKERELVAAISSSGGSTYYADSVKGRFTISRDNAKNTVYLQMNSLKPEDTAVYYCNAVYYRTVLKIGVYEYDYWGQGTQVTVSS,low polyreactivity
5,QVQLVESGGGLVQAGGSLRLSCAASGRISFRILWDGIDRRLGKKGSWLPLLTNTGSTNYADSVKGRFTISRDNAKNTVYLQIHSLKPEDTAVYDCNADPTGGSSYPAYFEYDYWGQGTQVTVSS,low polyreactivity
6,QVQLVESGGGLVQAGGSLRLSCAASGRISFRYAMGWSRQAPGKEWELVAAINRGGITNYADSVKGRFTISRDNAKNTVYFQMNSLKPEDTAVYYCAARYASPRYKSKMDYWGQGTQVTVSS,high polyreactivity
7,QVQLVESGGGLVQAGGSLRLSCAASGRISGVNAMGWYRQAPGKERELVATISGSGGRTYYADSVKGRFTISRDNAKNTVYLQMNSLKPEDTAVYYCNTLVQRGGYFSLRFDYWGQGTQVTVSS,low polyreactivity
8,QVQLVESGGGLVQAGGSLRLSCAASGRISLFNAMGWYRQAPGKERELVAAITYTGGSTYYADSVKGRFTISRDNAKNTVYLQMNSLKPEDTAVYYCAAEYYYVYTYDYWGQGTQVTVSS,high polyreactivity
9,QVQLVESGGGLVQAGGSLRLSCAASGRISLGNAMGWYRQAPGKERELVAVITRGGRTSYADSVKGRFTISRDNAKNTVYLQMNSLKPEDTAVYYCAAESPVYHLVTYDYWGQGTQVTVSS,high polyreactivity
10,QVQLVESGGGLVQAGGSLRLSCAASGRISLRNGMGWYRQAPGKERELVAAISRGGSTYYADSVKGRFTISRDNAKNTVYLHMNSLKPEDTAVYYCNAYIRPIYVDDDYWGQSTQVTVSS,low polyreactivity
11,QVQLVESGGGLVQAGGSLRLSCAASGRISLVNAMGWYRQAPGKERELVAAITYTGGSTYYADSVKGRFTISRDNAKNTVYLQMNSLKPEDTAVYYCAAEYYYVYTYDYWGQGTQVTVSS,high polyreactivity
12,QVQLVESGGGLVQAGGSLRLSCAASGRISLYAMGWYRQAPGKEREMVAAINGRGGNTYYADSVKGRFTISRDNAKNTVYLQMNSLKPEDTAVYYCNAVTVNGPYGYDYWGQGTQVTVSS,high polyreactivity
13,QVQLVESGGGLVQAGGSLRLSCAASGRISQHNAMGWYRQAPGKERELVAAISWIGTSTYYADSVKGRFTISRDNAKNTVYLQMNSLKPEDTAVYYGWSTRGPPYIYLNYNYWGQGTQVTVSS,low polyreactivity
14,QVQLVESGGGLVQAGGSLRLSCAASGRISQTNAMGWYRQAPGKERELVAAISWRGGSTYYADSVKGRFTISRDNAKNTVYLQMNSLKPEDTAVYYCAVRGKYDRHYYWGQGTQVTVSS,high polyreactivity
15,QVQLVESGGGLVQAGGSLRLSCAASGRISRCYVMGRYRHAPGTERELVAAITWNSGSTYYADSVKGRFTISRDNAKNTVYLQMNSLTPEDTAVYYCAGVLYSRYQQYDYWGQGTQVTVSS,high polyreactivity
16,QVQLVESGGGLVQAGGSLRLSCAASGRISRSKTMGWYRQATGKERELFAVINTWIGGSTYYADSVKGRFTISRDNAKNTVYLQMNRQKPEDTAVYYCAADATLWDWWLDYDYWGQVTQVTVSS,high polyreactivity
17,QVQLVESGGGLVQAGGSLRLSCAASGRISRSNTMGWYRQGPGKERELVAAISRGGGSTYYADSVKGRFTISRDNAKNTVYLQMNSLKPEDTAVDYCAKAFRGHYWRQGTQVTVSS,high polyreactivity
18,QVQLVESGGGLVQAGGSLRLSCAASGRISSAYAMGWYRQAPGKERELVAAISSGTRTNYADSVKGRFTMSRDNAKNTVYLQMNSLKPEDTAVYYCNAVPGYVYYYQYWGQGTQVTVSS,high polyreactivity
19,QVQLVESGGGLVQAGGSLRLSCAASGRISSNVMGWYRQAPGKERELVAAISVSGARTYYADSVKGRFTISRDNAKNTVYLQMNSLKPEDTAVYDCAAVYGGVYYGGDYWGQGTQVTVSS,high polyreactivity
20,QVQLVESGGGLVQAGGSLRLSCAASGRISSYYVMGWYRQAPGKERELVAAITGGDSTNYADSVKGRFTISRDNAKNTVYLQMNSLKPEDTAVYYCNAYYWYLDDYWGQGSQVTVSS,high polyreactivity
21,QVQLVESGGGLVQAGGSLRLSCAASGRISTYYTMGWYRQAPGKERELVAAISWSGTSTYYADSVKGRFTISRDNAKNTVYLQMNSLKPEDTAVYYCNARWRYPLDSVTDDYWGQGTQVTVSS,high polyreactivity

# — the nanobody polyreactivity screen of Harvey et al. (2022)
